# Paper PMC3080406, “Efficient Conversion of Phenylpyruvic Acid to Phenyllactic Acid by Using Whole Cells of Bacillus coagulans SDM” (PLoS ONE, 2011)
# B1: D-nLDH (Heyndrickxia coagulans) (protein)
# chain: MRKVVAYETRADEFPLFQKFARKFDLDIKYIDDVLTPETAMEAKGAEAVTILGNYPVGSGTFKALRDVGVKYIGLRTAGNNHIDQEAAKAYGIRFSNVAYSPYCVADFATMLILMCVRKAKQILSRVEAQDFSVEGIQGREMRNLTIGIIGAGRIGSIVAKNLSGFGCNLIAHDTVERDELRGILKYVSLDELLEESDVITIHTPLFESTYHMINQERIAKIKDGVCIINCSRGAEVDTYALIAGIEAGKAGAAGIDVLEDEEGIFHYDRRTDILDHRQLAILRSFPNVIVTPHTAFYPNQAVSDMAEMALTSLVSFVETGKSRWEIKS
# notes: full-length ldhD in pET-28a, N- and C-terminal His tags kept, expressed in E. coli BL21(DE3), HisTrap purified
# B2: L-nLDH (Heyndrickxia coagulans) (protein)
# chain: MKKVNRIAVVGTGAVGTSYCYAMINQGVAEELVLIDINEAKAEGEAMDLNHGLPFAPTPTRVWKGDYSDCGTADLVVITAGSPQKPGETRLDLVSKNAKIFKGMIKSIMDSGFNGIFLVASNPVDILTYVTWKESGLPKEHVIGSGTVLDSARLRNSLSAQFGIDPRNVHAAIIGEHGDTELPVWSHTNIGYDTIESYLQKGIIDEKTLDDIFVNTRDAAYHIIERKGATFYGIGMSLTRITRAILNNENSVLTVSAFLEGQYGNSDVYVGVPAIINRQGIREVVEIKLNEKEQEQFNHSVKVLKETMAPVL
# notes: full-length ldhL in pET-28a, N- and C-terminal His tags kept, expressed in E. coli BL21(DE3), HisTrap purified
# What was measured:
# Test in all cases: NADH oxidation assay
# Type in all cases: biochemical, Heyndrickxia coagulans
# NADH oxidation assay [1] = substrate: O=C(O)C(=O)Cc1ccccc1; conditions: 0.2 mM NADH, 50 mM Tris-HCl pH 7.0, 50°C, no FDP
# Description: (§1) NADH oxidation assay on D-nLDH
# NADH oxidation assay [2] = substrate: CC(=O)C(=O)O; conditions: 0.2 mM NADH, 50 mM Tris-HCl pH 7.0, 50°C, no FDP
# Description: as §1
# NADH oxidation assay [3] = substrate: O=C(O)C(=O)Cc1ccccc1; conditions: 0.2 mM NADH, 5 mM FDP (fructose 1,6-bisphosphate), 50 mM Tris-HCl pH 7.0, 50°C
# Description: (§2) NADH oxidation assay on L-nLDH
# NADH oxidation assay [4] = substrate: CC(=O)C(=O)O; conditions: 0.2 mM NADH, 5 mM FDP (fructose 1,6-bisphosphate), 50 mM Tris-HCl pH 7.0, 50°C
# Description: as §2
Protein,Km (NADH oxidation assay [1]),Vmax (NADH oxidation assay [1]),kcat (NADH oxidation assay [1]),kcat/Km (NADH oxidation assay [1]),Km (NADH oxidation assay [2]),Vmax (NADH oxidation assay [2]),kcat (NADH oxidation assay [2]),kcat/Km (NADH oxidation assay [2]),Km (NADH oxidation assay [3]),Vmax (NADH oxidation assay [3]),kcat (NADH oxidation assay [3]),kcat/Km (NADH oxidation assay [3]),Km (NADH oxidation assay [4]),Vmax (NADH oxidation assay [4]),kcat (NADH oxidation assay [4]),kcat/Km (NADH oxidation assay [4])
B1,4.4 mM,23.5 µmol/min/mg,16.5 s⁻¹,3900 M⁻¹ s⁻¹,2.2 mM,33.7 µmol/min/mg,23.6 s⁻¹,11000 M⁻¹ s⁻¹,,,,,,,,
B2,,,,,,,,,4.3 mM,72.6 µmol/min/mg,47.2 s⁻¹,11000 M⁻¹ s⁻¹,2.6 mM,1800 µmol/min/mg,1170 s⁻¹,450000 M⁻¹ s⁻¹
